Measured values as given in paper PMC6546747, “Wwp2 maintains cartilage homeostasis through regulation of Adamts5” (Nature Communications, 2019).

Target: T1, Wwp2 protein purified from transfected HEK293T cells (in vitro pull-down) (mouse, UniProt Q9DBH0 1-870)
T1 construct: Wwp2; plasmids were built from full-length cDNA NM_025830.3; source: HEK293T, transfected, purified (tagged protein magnetic purification kit)
Test: pull-down; in vitro pull-down using His-tag (Dynabeads His-Tag Isolation and Pulldown); proteins purified from transfected HEK293T cells
Details: both partners purified

T1 sequence (Q9DBH0 whole entry): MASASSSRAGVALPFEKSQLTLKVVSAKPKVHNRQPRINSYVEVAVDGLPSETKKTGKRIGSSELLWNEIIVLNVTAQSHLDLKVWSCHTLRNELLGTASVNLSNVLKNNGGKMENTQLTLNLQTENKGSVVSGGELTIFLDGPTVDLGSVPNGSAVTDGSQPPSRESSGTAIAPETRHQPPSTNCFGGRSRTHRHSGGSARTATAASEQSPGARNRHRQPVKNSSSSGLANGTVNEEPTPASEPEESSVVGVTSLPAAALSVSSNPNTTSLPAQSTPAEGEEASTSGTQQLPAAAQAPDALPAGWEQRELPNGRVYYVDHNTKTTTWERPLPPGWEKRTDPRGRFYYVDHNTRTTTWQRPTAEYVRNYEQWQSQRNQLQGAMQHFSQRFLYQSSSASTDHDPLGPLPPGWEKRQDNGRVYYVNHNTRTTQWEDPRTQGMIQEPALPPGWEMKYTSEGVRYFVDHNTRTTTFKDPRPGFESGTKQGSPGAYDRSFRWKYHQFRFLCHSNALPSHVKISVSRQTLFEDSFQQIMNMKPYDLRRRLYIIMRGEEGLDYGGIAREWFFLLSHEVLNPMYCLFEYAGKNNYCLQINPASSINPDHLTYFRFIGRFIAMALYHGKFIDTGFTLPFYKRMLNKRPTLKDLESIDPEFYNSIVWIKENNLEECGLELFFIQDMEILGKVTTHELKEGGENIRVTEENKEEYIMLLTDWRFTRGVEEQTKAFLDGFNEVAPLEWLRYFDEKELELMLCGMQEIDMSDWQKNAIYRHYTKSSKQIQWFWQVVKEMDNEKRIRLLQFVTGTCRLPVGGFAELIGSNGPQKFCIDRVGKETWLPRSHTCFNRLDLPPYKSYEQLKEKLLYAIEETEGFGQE

B1: Runx2 protein purified from transfected HEK293T cells (in vitro pull-down) (natural protein, mouse, UniProt Q08775-5 1-528, looked up)
chain: MASNSLFSAVTPCQQSFFWDPSTSRRFSPPSSSLQPGKMSDVSPVVAAQQQQQQQQQQQQQQQQQQQQQQQQQQQQQEAAAAAAAAAAAAAAAAAAVPRLRPPHDNRTMVEIIADHPAELVRTDSPNFLCSVLPSHWRCNKTLPVAFKVVALGEVPDGTVVTVMAGNDENYSAELRNASAVMKNQVARFNDLRFVGRSGRGKSFTLTITVFTNPPQVATYHRAIKVTVDGPREPRRHRQKLDDSKPSLFSDRLSDLGRIPHPSMRVGVPPQNPRPSLNSAPSPFNPQGQSQITDPRQAQSSPPWSYDQSYPSYLSQMTSPSIHSTTPLSSTRGTGLPAITDVPRRISDDDTATSDFCLWPSSLSKKSQAGASELGPFSDPRQFPSISSLTESRFSNPRMHYPATFTYTPPVTSGMSLGMSATTHYHTYLPPPYPGSSQSQSGPFQTSSTPYLYYGTSSASYQFPMVPGGDRSPSRMVPPCTTTSNGSTLLNPNLPNQNDGVDADGSHSSSPTVLNSSGRMDESVWRPY
notes: Runx2; plasmids were built from full-length cDNA NM_001146038.2; source: HEK293T, transfected, purified (tagged protein magnetic purification kit)
B1: binds.
